Experimental data from the nanobody polyreactivity screen of Harvey et al. (2022).

Test: yeast display, Sf9 membrane polyspecificity reagent, FACS + sequencing; frameworks hold sequencing errors
Procedure, shortened: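 Galactose-induced (36–48 hours) yeast carrying a synthetic nanobody display library were exposed to 10% biotinylated, detergent-solubilized Sf9 membrane reagent at 4 °C for 1 hour. FACS followed streptavidin microbead enrichment, using low and high (top ~1%) gates for expression (anti-HA) and reagent binding (streptavidin). Colony PCR, MiSeq 2 × 250 sequencing and CDR-length filtering followed. Labels for polyreactivity reflect the gate of origin.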

| Sequence | polyreactivity (PSR sort gate) |
| --- | --- |
| QVQLVESGGGLVQAGGSLRLICAASGSTFDVNAMGWYRQAPGKERELVAAISWNSGSTYYADSVKGRFTISRDNAKNTVYLQMNSLKPEDTAVYYCAATYGTGRRSKYGYWGQGTQVTVSS | high polyreactivity |
| QVQLVESGGGLVQAGGSLRLICAASGSTFFANAMGWYRPAPGKERELVAVITYSGGSTYYADSVKGRFTISRYNAKNTVYLQMNSLKPEDTAVDYCAAKSYFRPYSYSYSYWGQGTQVTVSS | high polyreactivity |
| QVQLVESGGGLVQAGGSLRLICAASGSTFGFNAMGWYRQAPGKERELVAAITFSGGTTYYADSVKGRFTISRDNAKNTVYVQMNSLKPDDTAVYYCNAEWWYHYTGPFAPWGEDYWGQGTQVTVSS | low polyreactivity |
| QVQLVESGGGLVQAGGSLRLICAASGSTFHAYAMGWYRQAPGKERDLVAAITWSGDSTYADSVKGRFTISRDKAKNTFFLQMNSLKPEETAVYDCACRGFLGHWPRPSYDYWGQGTQVTVSS | low polyreactivity |
| QVQLVESGGGLVQAGGSLRLICAASGSTFKRYAMGWYRQAPGKERELVAAISTRGSTYYADSVKGRFTISRDNAKNTVYLQMNSLKPEDTAVYYCNARQALVWKWSWYSPGYDYWGQGTQVTVSS | low polyreactivity |
| QVQLVESGGGLVQAGGSLRLICAASGSTFTQNAMGWYRQAPGKERELVAAISSSGTRTYYADSVKGRFTISRDNAKNTVYLQMNSLKPEDTAVYYCAATVYPSVYGENHYGYWGQGTKVTVSS | high polyreactivity |
| QVQLVESGGGLVQAGGSLRLICAASGSTFWPYARGWYRQAPGNERELVAAITWSGGRTYYADSVKGRFTISRDNAKNTVYLQMNSLKPEDTAVYYCAADSYVLGRWYGYWGQGTQVTVSS | low polyreactivity |
| QVQLVESGGGLVQAGGSLRLICAASGSTLKYYAMGWSRPAPGKERELVARITRSSGSTYYADSVKGRFTISRDNAKNTVYLQMNSMKPEDTAVYYCNKVYKSYYWGGYDWGQGTQVTVSS | high polyreactivity |
| QVQLVESGGGLVQAGGSLRLICAASGSTLYRNAMGWYRQARGKERELVAAISSSGGTTFYADSVKGRFTISRDNAKNTVYLQMNSLKPEDTAVYYCNRTARKLLTVHSSVVGLDYWGQGSQVTVSS | low polyreactivity |
| QVQLVESGGGLVQAGGSLRLICAASGSTSYVYAMGWYRQAPGKERELVAAISGSGGRTYYADSVKGRFTISRDNAKNTVYLQMNSLKPEDTAVYYCNALPRPSYPFEYWGQGTQVTVSS | high polyreactivity |
| QVQLVESGGGLVQAGGSLRLICAASGSTTFYAKGWYRPAPGKEWELVATISSSAGSTYYADSVKGRFTISRDNAKNNVYLEMNSLIPEDTAVFYCDAKYSQLRQYYRLDYWGQGTQVTVSS | low polyreactivity |
| QVQLVESGGGLVQAGGSLRLICAASGSTYSVYAMVWYRQAPGKERELVATITWNGGRTYYADSVKGRFTISRDNAKNTVYLQMNSLKPEDTAVYYCAADGWTSIGGPDYQHDYWGQGTQVTVSS | high polyreactivity |
| QVQLVESGGGLVQAGGSLRLICAASGSTYYDYAMGWYRQAPGKERELVAGISRSGGSTYYADSVKGRFTISRDNAKNSVYLQMNSLKPEDTAVYYCAARNYRYLYRIEYWGQGTQVTVSS | high polyreactivity |
| QVQLVESGGGLVQAGGSLRLICAASGTFTSNAMGWYRQAPGKERELVAVITSTDSTNYADSVKGRFTISRDNAKNTVYLPLNSLKPEDTAVYYCAGSKYTVVQQYWDVLFDYWGQGTQVTVSS | low polyreactivity |
| QVQLVESGGGLVQAGGSLRLICAASGYIFKHNAMGWYRQAPGKERELVAAISWSGVSTYYADSVTGRFTISRDNAKNTVYLQMNSLKPEDTAVYYCNAPAIAPIYDYWGQGTQVTVSS | low polyreactivity |
| QVQLVESGGGLVQAGGSLRLICAASGYILWKAMGWYRQAPGKERELVAAIRFRVGSTSYADSVKGRFTISRDNAKNTVYLQMNSLKPVYTAVYYCTARWWVIRPYQRHDYWGQGTQVTVSS | low polyreactivity |
| QVQLVESGGGLVQAGGSLRLICAASGYTFEYNAMGWSRQAPGKEREFVATITASGDSTYYADSVKGRFTISRDNAKNTVYLQMNSLKPEDTAVYYCATEKRDVYFTAKYDYWGQGTQVTVSS | low polyreactivity |
| QVQLVESGGGLVQAGGSLRLICAASGYTFFFYAMGWYRQAPGKEREFVAAITWRGDSTYYADSVKGRYTISRDNAKNTVYLQMNSLKPEDTAVYYCAADPGFTWSRRMDYWGHGTQVTVSS | low polyreactivity |
| QVQLVESGGGLVQAGGSLRLICAASGYTFPDYAMGWYRPAPGTERELVAAIRSGGGTNYADSVKGRFTISRDNAKNSVYLQMNSMKPEDTAVFYCAKEWAGGLYDYWGQGTQVTVSS | low polyreactivity |
| QVQLVESGGGLVQAGGSLRLICAASGYTFPYAMGWYRQAPGKERELVAAISRSGASTYYADSVKGRFTISRDNAKNTVYLQMNSLKPEDTAVYYCATRRVYSTRVKFYYWGQGTQVTVSS | high polyreactivity |
| QVQLVESGGGLVQAGGSLRLICAASGYTFYYAMGWYRQAPGKERELVAAISAGGGRTYYADSVKGRFTISRDNAKITVYLQMNSLKPEDTAVYYCNRVYRLTAYGYDYWGQGTQVTVSS | high polyreactivity |
| QVQLVESGGGLVQAGGSLRLICAATGFTFHNNVMGWYRQAPGKERELVATISKSGGSTYYADSVKGRFTISRDNAKNTVYLQMNRLKPEDTAVYYCARRYRDYGRYGYWGQGTQVTVSS | high polyreactivity |
